Experimental data reported in patent CN116284353A.

Target: 柯萨奇病毒A16型病毒样颗粒 (Coxsackievirus A16) (UniProt Q65900)
Assay: sandwich ELISA: rabbit anti-CV A16 VLP polyclonal serum (1:8000) as capture, CV A16 VLP titrated, mAb 10 ng/μL as detector; positive when OD450nm>0.15

UniProt Q65900, sequence (Q65900 2-862): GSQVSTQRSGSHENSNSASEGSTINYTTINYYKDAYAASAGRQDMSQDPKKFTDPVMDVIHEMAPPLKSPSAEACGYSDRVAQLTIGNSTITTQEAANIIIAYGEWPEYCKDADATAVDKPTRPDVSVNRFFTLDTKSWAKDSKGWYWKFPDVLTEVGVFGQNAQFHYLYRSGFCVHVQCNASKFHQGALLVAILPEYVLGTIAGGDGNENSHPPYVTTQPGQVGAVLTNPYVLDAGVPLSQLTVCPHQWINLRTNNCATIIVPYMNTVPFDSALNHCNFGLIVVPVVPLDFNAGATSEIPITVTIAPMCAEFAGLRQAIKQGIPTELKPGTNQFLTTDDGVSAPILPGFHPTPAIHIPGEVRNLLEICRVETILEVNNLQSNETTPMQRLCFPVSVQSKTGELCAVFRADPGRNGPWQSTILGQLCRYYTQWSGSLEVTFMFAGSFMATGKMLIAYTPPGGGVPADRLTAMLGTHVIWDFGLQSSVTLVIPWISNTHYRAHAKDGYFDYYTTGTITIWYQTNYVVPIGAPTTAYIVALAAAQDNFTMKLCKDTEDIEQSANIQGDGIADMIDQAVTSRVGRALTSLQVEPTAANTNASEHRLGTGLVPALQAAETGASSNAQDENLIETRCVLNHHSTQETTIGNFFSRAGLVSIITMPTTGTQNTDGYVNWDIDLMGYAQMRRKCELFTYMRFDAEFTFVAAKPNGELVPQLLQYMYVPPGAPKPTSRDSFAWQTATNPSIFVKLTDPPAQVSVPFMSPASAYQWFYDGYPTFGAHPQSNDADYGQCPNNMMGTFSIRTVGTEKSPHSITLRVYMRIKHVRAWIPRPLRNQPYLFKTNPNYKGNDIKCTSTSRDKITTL

B1: 单克隆抗体3H5 (antibody, mouse IgG1, kappa, V domains shown)
VH: EVKLEESGGGLVQPGGSMKLSCVGSGFTFSNYWMNWVRQSPDKGLEWVAEIRSKSNNYATHYAESVKGRLTISRDDSKSGVYLQMNNLRPEDTGIYYCTRSGAYWGQGTLVTVSA
VL: QIVLTQSPAIMSASPGEKVTMTCSASSSVSYIYWYQQKPGSSPRLLIYDTTRLASGVPVRFSGSGSGTSYSLTISRMEAEDAATYYCQHWNSYPFTFGSGTKLEIKR
最低检出限度: 62.5 ng/mL
